Experimental data taken from patent US20230331823A1 (HENRY M JACKSON FOUNDATION FOR THE ADVANCEMENT OF MILITARY …, published 2023).
Numbering of substitutions follows the chain as printed.

B1: ShAb02-Foldon (ShAb02 VNAR-KESlinker-Foldon-3c-His8-Strep) (VNAR)
VNAR: ARVDQTPQTITKETGESLTINCVLRDSNCALASTDWYRKKSGSTNEESISKGGRYVETVNSGSKSFSLRINDLTVEDSGTYRCNAWDSWETRQLKCDYDVYGGGTVVTVNK
B2: ShAb01H06K (ShAb01Hole-06Knob) (bispecific antibody, V domains shown)
V domain 1: ARVDQTPRSVTKETGESLTINCVLRDSNCALSSTHWYRKKSGSTNEERILQGRRYVETVNSGSKSFSLRINDLRVEDSGTYRCKVYWGNSWQDKFCPGLGSYEYGDGTAVTVNS
V domain 2: ARVDQTPRSVTKETGESLTINCVLRDASYALGSTCWYRKKSGSTNEESISKGGRYVETVNSGSKSFSLRINDLTVEDGGTYRCGVGRGLGVGCDYPLCSYSYAACGDGTAVTVNS
B3: ShAb06H02K (ShAb06Hole-02Knob) (bispecific antibody, V domains shown)
V domain 1: B2 V domain 2
V domain 2: B1 VNAR with K111S
B4: ShAb01-Foldon (ShAb01 VNAR-KESlinker-Foldon-3c-His8-Strep) (VNAR)
VNAR: B2 V domain 1 with S114K
B5: MoB3-3D8_Fc chimera antibody (Fc fusion)
chain: ARVDQTPQTITKETGESLTINCVLRDSNCALASTDWYRKKSGSTNEESISKGGRYVETVNSGSKSFSLRINDLTVEDSGTYRCNAWDSWETRQLKCDYDVYGGGTVVTVN

Molecular target: T1, SARS-CoV-2 Alpha (B.1.1.7) Spike on pseudovirions (SARS-CoV-2)
Assay: cell-based or functional assay

Question: Which results are given for B1?
Answer: pseudovirus neutralization IC50: 0.035 µg/mL; pseudovirus neutralization IC80: 0.104 µg/mL

Question: B2 was tested. Which “pseudovirus neutralization IC50” value did it give?
Answer: The value was 1.37 µg/mL.

Question: And the “pseudovirus neutralization IC80” value?
Answer: Its value is 2.65 µg/mL.

Question: Which results are given for B3?
Answer: pseudovirus neutralization IC50: 0.109 µg/mL; pseudovirus neutralization IC80: 0.225 µg/mL

Question: B4 was tested. Which “pseudovirus neutralization IC50” value did it give?
Answer: Its value is 0.119 µg/mL.

Question: What about the “pseudovirus neutralization IC80” value of the same binder?
Answer: Its value is 0.328 µg/mL.

Molecular target: T2, SARS-CoV-2 Beta (B.1.351) Spike on pseudovirions (SARS-CoV-2)
Assay: cell-based or functional assay

Question: Which results are given for B1?
Answer: pseudovirus neutralization IC50: 0.397 µg/mL; pseudovirus neutralization IC80: 1.8 µg/mL

Question: For B2, which “pseudovirus neutralization IC50” value is on record?
Answer: Its value is 1.28 µg/mL.

Question: And the “pseudovirus neutralization IC80” value?
Answer: The value was 6.17 µg/mL.

Question: For B3, which “pseudovirus neutralization IC50” value is on record?
Answer: The value was 0.18 µg/mL.

Question: And the “pseudovirus neutralization IC80” value?
Answer: The value was 0.424 µg/mL.

Question: Which results are given for B4?
Answer: pseudovirus neutralization IC50: 0.075 µg/mL; pseudovirus neutralization IC80: 0.164 µg/mL

Molecular target: T1, SARS-CoV-2 Alpha (B.1.1.7) Spike on …
Assay: cell-based or functional assay
Remark: another data set of the same source

Question: B1 was tested. Which “pseudovirus neutralization IC50” value did it give?
Answer: Its value is 0.04 µg/mL.

Question: How did the “pseudovirus neutralization IC50” value turn out when B4 was run?
Answer: The value was 0.12 µg/mL.

Molecular target: T2, SARS-CoV-2 Beta (B.1.351) Spike on …
Assay: cell-based or functional assay
Remark: another data set of the same source

Question: For B1, which “pseudovirus neutralization IC50” value is on record?
Answer: Its value is 0.02 µg/mL.

Question: For B4, which “pseudovirus neutralization IC50” value is on record?
Answer: Its value is 0.07 µg/mL.

Molecular target: Spike Ferritin nanoparticle SpFN_pCoV1B-06-PL (PrefLead-S2P.1158op1-del-Ferritin) (SARS-CoV-2 Spike ectodomain fused to …)
Assay: BLI, Fc fusion on AHC probe, SpFN_pCoV1B-06-PL in solution

Question: Does B5 bind?
Answer: Result: binds
